Measured values: PMC8761706, “Mapping of the fibrinogen-binding site on the staphylocoagulase C-terminal repeat region” (The Journal of Biological Chemistry, 2021)

Experiments:
[1] = target: T1, [5F]PR–R1 (Staphylococcus aureus Newman D2 Tager …, 5-fluorescein (5-IAF) on the engineered C-terminal Cys); assay: other fluorescence titration; as the intensity titration in Hepes pH 7.4, with saturating GPRP (4.9 mM in the methods, 5 mM in the results); n fixed to 1; conditions: both partners purified
T1 construct: the 10 SC residues preceding PR (1-10 of the construct numbering); staphylocoagulase, first 11 residues of the 32-residue pseudorepeat PR (11-21 of the construct numbering); last 21 residues of PR (22-42 of the construct numbering); staphylocoagulase repeat R1, 27 residues; engineered C-terminal Cys for labeling; not shown: His6, N-terminal, cleaved

[2] = target: T1, [5F]PR–R1; assay: other fluorescence titration; fluorescein-labeled construct at fixed concentration titrated with frag D; fluorescence intensity; 25 °C; 50 mM Hepes, 110 mM NaCl, 5 mM CaCl2, 1 mg/ml PEG-8000, pH 7.4, 10 μM FPR-CK; quadratic fit; n fixed to 1 for the Ala constructs and MP; conditions: both partners purified

B1: fibrinogen fragment D (domain or fragment)
chain 1: VSEDLRSRIEVLKRKVIEKVQHIQLLQKNVRAQLVDMKRLEVDIDIKIRSCRGSCSRALAREVDLKDYEDQQKQLEQVIAKDLLPSR
chain 2: DNENVVNEYSSELEKHQLYIDETVNSNIPTNLRVLRSILENLRSKIQKLESDVSAQMEYCRTPCTVSCNIPVVSGKECEEIIRKGGETSEMYLIQPDSSVKPYRVYCDMNTENGGWTVIQNRQDGSVDFGRKWDPYKQGFGNVATNTDGKNYCGLPGEYWLGNDKISQLTRMGPTELLIEMEDWKGDKVKAHYGGFTVQNEANKYQISVNKYRGTAGNALMDGASQLMGENRTMTIHNGMFFSTYDRDNDGWLTSDPRKQCSKEDGGGWWYNRCHAANPNGRYYWGGQYTWDMAKHGTDDGVVWMNWKGSWYSMRKMSMKIRPFFPQQ
chain 3: KMLEEIMKYEASILTHDSSIRYLQEIYNSNNQKIVNLKEKVAQLEAQCQEPCKDTVQIHDITGKDCQDIANKGAKQSGLYFIKPLKANQQFLVYCEIDGSGNGWTVFQKRLDGSVDFKKNWIQYKEGFGHLSPTGTTEFWLGNEKIHLISTQSAIPYALRVELEDWNGRTSTADYAMFKVGPEADKYRLTYAYFAGGDAGDAFDGFDFGDDPSDKFFTSHNGMQFSTWDNDNDKFEGNCAEQDGSGWWMNKCHAGHLNGVYYQGGTYSKASTPNGYDNGIIWATWKTRWYSMKKTTMKIIPFNRLTIGEGQQHHLGGAK
Kd [1]: 18 nM | Kd [2]: 49 nM
